Legend:
[1] = Metal reduction capacity of tanned calf lens α-crystallin, Cu(II); format: biochemical; conditions: α-crystallin preparation 100 μg/ml, Cu(II)-glycine 25 μM, one hour 37° C.
Experimental: (§1) Studies of Tanned Calf Lens Crystalin in Assay of Crystallin Protein for Metal Reduction Capacity—α-Crystallin (10 mg/ml) from calf lens was modified by reaction with 3-HK (100 μM), 3-HAA (100 μM), or ASC (100 μM) in PBS, ph 7.4, for 12 hours at 4° C. in the dark. Control samples were incubated with ascorbic acid (100 μM) or without added reductant. The tanning incubation solutions also contained triethylenetetramine (TETA, 200 μM) to prevent cross-linking of the protein. After incubation, free reductant was removed from the tanned α-crystallin preparations by exhaustive dialysis at 4EC in the dark utilizing PBS, pH 7.4, containing CHELEX™ 100 chelating ion exchange resin (BioRad, Hercules, Calif.). The various modified α-crystallin preparations (100 μg/ml) were co-incubated with either Cu(II)-glycine glycine (25 μM) or Fe(III)-citrate (25 μM) for one hour at 37° C. and assayed for metal reduction capacity using the BC and BP spectrophotometric assay as detailed above. Incubated and dialyzed α-crystallin (100 μg/ml) and untreated α-crystallin (100 μg/ml) preparations were used for procedural control.
(§2) 3-HK: α-crystallin reduced nearly 100% of the available Cu(II) and approximately 20% of the available Fe(III). 3-HAA: α-crystallin reduced approximately 65% of the available Cu(II).

[2] = Metal reduction capacity of tanned calf lens α-crystallin, Fe(III); format: biochemical; conditions: α-crystallin preparation 100 μg/ml, Fe(III)-citrate 25 μM, one hour 37° C.
Experimental: as §1, §2

B1: α-Crystallin: unmodified α-crystallin from calf lens, procedural control (protein, UniProt P02470 1-173; P02510 1-175, looked up)
Alpha-crystallin A chain: MDIAIQHPWFKRTLGPFYPSRLFDQFFGEGLFEYDLLPFLSSTISPYYRQSLFRTVLDSGISEVRSDRDKFVIFLDVKHFSPEDLTVKVQEDFVEIHGKHNERQDDHGYISREFHRRYRLPSNVDQSALSCSLSADGMLTFSGPKIPSGVDAGHSERAIPVSREEKPSSAPSS
Alpha-crystallin B chain: MDIAIHHPWIRRPFFPFHSPSRLFDQFFGEHLLESDLFPASTSLSPFYLRPPSFLRAPSWIDTGLSEMRLEKDRFSVNLDVKHFSPEELKVKVLGDVIEVHGKHEERQDEHGFISREFHRKYRIPADVDPLAITSSLSSDGVLTVNGPRKQASGPERTIPITREEKPAVTAAPKK
In the case of B1, the “reduction of available Cu(II)” value [1] is reported as “approximately 35%” and the “reduction of available Fe(III)” value [2] is reported as “negligible percentage”.

B2: 3-HK: α-crystallin: calf lens α-crystallin modified (tanned) by reaction with 3-HK, free metabolite removed by dialysis (protein, UniProt P02470 1-173; P02510 1-175, looked up)
Alpha-crystallin A chain: MDIAIQHPWFKRTLGPFYPSRLFDQFFGEGLFEYDLLPFLSSTISPYYRQSLFRTVLDSGISEVRSDRDKFVIFLDVKHFSPEDLTVKVQEDFVEIHGKHNERQDDHGYISREFHRRYRLPSNVDQSALSCSLSADGMLTFSGPKIPSGVDAGHSERAIPVSREEKPSSAPSS
Alpha-crystallin B chain: MDIAIHHPWIRRPFFPFHSPSRLFDQFFGEHLLESDLFPASTSLSPFYLRPPSFLRAPSWIDTGLSEMRLEKDRFSVNLDVKHFSPEELKVKVLGDVIEVHGKHEERQDEHGFISREFHRKYRIPADVDPLAITSSLSSDGVLTVNGPRKQASGPERTIPITREEKPAVTAAPKK
modifications: modified with 3-hydroxykynurenine
notes: calf lens α-crystallin modified (tanned) by reaction with 3-HK, free metabolite removed by dialysis
For B2, the “reduction of available Cu(II)” value [1] was roughly 100% and the “reduction of available Fe(III)” value [2] was “approximately 20%”.

Reference: patent US7166472B2, “Method for the identification of agents that inhibit or promote cataracts and uses thereof” (The General Hospital Corporation, priority 2000, dated 2007)
